Results reported in patent publication US20230295293A1 (published 2023).

B1: AB1370026 hIgG1 (antibody, V domains shown)
VH: EVQLVESGGGLVKPGGSLRLSCAASGFTFSSYAMSWVRQAPGKGLEWVSSISSGRSYIYYADSVKGRFTISRDNAKNSLYLKMNSLRDEDTAVYYCAREMQQLALDYWGQGTLVTVSS
VL: DIQMTQSPSSLSASVGDRVTITCRASQGISNFLAWFQQAPGKAPKSLIYAASSLQSGVPSKFSGSGSGTDFTLTISSLQPEDFATYYCQQYNSYPFTFGQGTKLEIKR
B2: AB1370083 hIgG1 (antibody, V domains shown)
VH: EVQLVESGGGLVKPGGSLRLSCAASGFTFSSYNMNWVRQAPGKGLEWVSSISSGSSYIYYADSMKGRFTISRDNAKNSLFLQMNSLRAEDTAVYYCARGMTTLTFDYWGQGTLVTVSS
VL: DIQMTQSPSSLSASVGDRVTITCRASQGISTFLAWFQQKPGKAPKSLIYAASSLQSGVPSKFSGSGSETDFTLTISSLQPEDFATYYCQQYISYPLTFGGGTKVEIKR
B3: AB1370026 (hybridoma IgG) (antibody, V domains shown)
VH: EVQLVESGGGLVKPGGSLRLSCAASGFTFSSYAMSWVRQAPGKGLEWVSSISSGRSYIYYADSVKGRFTISRDNAKNSLYLKMNSLRDEDTAVYYCAREMQQLALDYWGQGTLVTVSS
VL: DIQMTQSPSSLSASVGDRVTITCRASQGISNFLAWFQQAPGKAPKSLIYAASSLQSGVPSKFSGSGSGTDFTLTISSLQPEDFATYYCQQYNSYPFTFGQGTKLEIK
notes: IgG from hybridoma of Del-1 humanised mouse, tested as supernatant ('mouse IgG', detected with anti-mouse IgG) or Phynexus purified
B4: AB1370095 hIgG1 (antibody, V domains shown)
VH: EVQLVESGGGLVKPGGSLRLSCAASGFTFSSYSMNWVRQAPGKGLEWVSSISSRSSYVYYADSVKGRFTISRDNAKNSLYLQMNSLRAEDTAVYYCARGMTTLTFDYWGQGTLVTVSS
VL: DIQMTQSPSSLSASVGDRVTITCRASQGISSFLAWFQQKPGKAPKSLIYAASSLQSGVPSKFSGSGSGTDFTLTISSLQPEDFATYYCQQYNSYPLTFGGGTKVEIKR
B5: AB1370083 (hybridoma IgG) (antibody, V domains shown)
VH: EVQLVESGGGLVKPGGSLRLSCAASGFTFSSYNMNWVRQAPGKGLEWVSSISSGSSYIYYADSMKGRFTISRDNAKNSLFLQMNSLRAEDTAVYYCARGMTTLTFDYWGQGTLVTVSS
VL: DIQMTQSPSSLSASVGDRVTITCRASQGISTFLAWFQQKPGKAPKSLIYAASSLQSGVPSKFSGSGSETDFTLTISSLQPEDFATYYCQQYISYPLTFGGGTKVEIK
notes: as for B3
B6: AB1370095 (hybridoma IgG) (antibody, V domains shown)
VH: EVQLVESGGGLVKPGGSLRLSCAASGFTFSSYSMNWVRQAPGKGLEWVSSISSRSSYVYYADSVKGRFTISRDNAKNSLYLQMNSLRAEDTAVYYCARGMTTLTFDYWGQGTLVTVSS
VL: DIQMTQSPSSLSASVGDRVTITCRASQGISSFLAWFQQKPGKAPKSLIYAASSLQSGVPSKFSGSGSGTDFTLTISSLQPEDFATYYCQQYNSYPLTFGGGTKVEIK
notes: as for B3
B7: AB1370035 hIgG1 (antibody, V domains shown)
VH: QVQLQQSGPGLVKPSQTLSLTCAISGDSVSSNSAAWNWIRQSPSRGLEWLGRTYYRSNWYNDYTLSVKSRITVNPDTSKNQFSLQLNSVTPEDTAVYYCVRGVGRFDSWGQGTLVTVSS
VL: DIQMTQSPSTLSASVGDRVIITCRASQSISSWLAWYQQKPGKAPKLLIYKASSLESGVPSRFSGSGSGTEFTLTITSLQPDDFASYYCQEYKTYSIFTFGPGTKVDIKR
B8: AB1370049 (hybridoma IgG) (antibody, V domains shown)
VH: LVQLQQSGPGLVKPSQTLSLTCAISGDSVSSDSATWNWIRQSPSRGLEWLGRTYYRSKWYNDYAVSVKSRITINPDTSKNQFSLQLNSVTPEDTAVYYCARGVGSFDYWGQGTLVTVSS
VL: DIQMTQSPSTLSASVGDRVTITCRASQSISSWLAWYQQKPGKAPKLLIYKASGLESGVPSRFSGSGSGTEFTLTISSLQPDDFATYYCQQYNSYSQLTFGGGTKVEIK
notes: as for B3
B9: AB1370049 hIgG1 (antibody, V domains shown)
VH: LVQLQQSGPGLVKPSQTLSLTCAISGDSVSSDSATWNWIRQSPSRGLEWLGRTYYRSKWYNDYAVSVKSRITINPDTSKNQFSLQLNSVTPEDTAVYYCARGVGSFDYWGQGTLVTVSS
VL: not shown
B10: AB1370035 (hybridoma IgG) (antibody, V domains shown)
VH: QVQLQQSGPGLVKPSQTLSLTCAISGDSVSSNSAAWNWIRQSPSRGLEWLGRTYYRSNWYNDYTLSVKSRITVNPDTSKNQFSLQLNSVTPEDTAVYYCVRGVGRFDSWGQGTLVTVSS
VL: DIQMTQSPSTLSASVGDRVIITCRASQSISSWLAWYQQKPGKAPKLLIYKASSLESGVPSRFSGSGSGTEFTLTITSLQPDDFASYYCQEYKTYSIFTFGPGTKVDIK
notes: as for B3
B11: AB1370117 hIgG1 (antibody, V domains shown)
VH: QVQLQQSGPGLVKPSQTLSLTCAISGDSVSSDSATWNWIRQSPSRGLEWLGRTYYRSKWYSDYAVSVKSRITINPDTSKNQFSLQLNSVTPEDTAVYFCARGGAPFDYWGQGTLVTVSS
VL: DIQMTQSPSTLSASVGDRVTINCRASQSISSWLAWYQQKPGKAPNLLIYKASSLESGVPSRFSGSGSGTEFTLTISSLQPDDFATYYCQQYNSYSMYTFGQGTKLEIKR
B12: AB1370117 (hybridoma IgG) (antibody, V domains shown)
VH: QVQLQQSGPGLVKPSQTLSLTCAISGDSVSSDSATWNWIRQSPSRGLEWLGRTYYRSKWYSDYAVSVKSRITINPDTSKNQFSLQLNSVTPEDTAVYFCARGGAPFDYWGQGTLVTVSS
VL: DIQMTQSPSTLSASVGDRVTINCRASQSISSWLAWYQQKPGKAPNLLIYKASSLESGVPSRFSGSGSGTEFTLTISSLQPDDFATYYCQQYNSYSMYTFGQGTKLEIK
notes: as for B3

Assays:
[1] = molecular target: T1, Human FRα ECD-Avi-His (human, biotin on the Avi-tag (BirA) in the HTRF assays); test: HTRF epitope competition assay, geomean n>2; competitor DyLight 650 labelled Comparator Antibody 1
T1 construct: also called biotinylated human FRα; folate receptor alpha
Method: (§1) HTRF assays were performed in 384-well white shallow well non-binding plates (Corning, 4513) in assay buffer containing phosphate-buffered saline (PBS) (Life Technologies, 14190), 0.100 v/v bovine serum albumin (BSA) (Sigma, A9576), and 0.4 M potassium fluoride (VWR International, 26820).
(§2) HTRF epitope competition assays were set up using a titration of test IgG, 1 nM streptavidin cryptate, biotinylated human FRα and DyLight 650 labelled IgG to assay volume of 10 μl. […] Assay plates were incubated for 3-4 h at room temperature prior to fluorescence measurement.

[2] = molecular target: T1, Human FRα ECD-Avi-His; test: HTRF epitope competition assay, geomean n>2; competitor DyLight 650 labelled Comparator Antibody 2
Method: as §1, §2

[3] = molecular target: T1, Human FRα ECD-Avi-His; test: SPR (Biacore T200, 25°C); antibody captured on Protein A, FRα ECD as analyte
Method: (§3) Protein A was covalently immobilised to a CM5 chip surface using standard amine coupling techniques at a concentration of 50 μg/ml in 10 mM Sodium acetate, pH 4.0. The antibody was captured onto the Protein A surface in HBS-EP+ buffer, pH 7.4 at 10 μl/min to enable FRα ECD binding. The FRα ECD was serially diluted (0.4 nM-100 nM human FRα ECD; 0.8 nM-200 nM cyno FRα ECD; 30 nM-4000 nM mouse FRα ECD and rat FRα ECD) in HBS-EP+ buffer, pH 7.4 and flowed over the chip at 50 μl/min, with 2 minutes association and 8 minutes dissociation. The chip surface was fully regenerated with pulses of 3 M MgCl₂ to remove captured antibody together with any bound FRα ECD. Multiple buffer-only injections were made under the same conditions to allow for double reference subtraction of the final sensorgram sets, which were analysed using Biacore T200 Evaluation Software to derive equilibrium dissociation constants.

[4] = molecular target: T2, Cyno FRα ECD-Avi-His (cynomolgus monkey, biotin on the Avi-tag (BirA) in the HTRF assays); test: as above
T2 construct: Soluble region with C-terminal Avi and His tags
Method: as §3

[5] = molecular target: T1, Human FRα ECD-Avi-His; test: MOv19 HTRF epitope competition assay; accelerated stability study
[6] = molecular target: T1, Human FRα ECD-Avi-His; test: MOv19 HTRF epitope competition assay, geomean; IgG kept 2 weeks at 4°C; competitor MOv19
[7] = molecular target: T1, Human FRα ECD-Avi-His; test: MOv19 HTRF epitope competition assay, geomean; IgG kept 2 weeks at 45°C; competitor MOv19
[8] = molecular target: T2, Cyno FRα ECD-Avi-His; test: SPR (Biacore T200)
Method: as §3

[9] = molecular target: T3, Human FRβ ECD-Avi-His (human, biotin on the Avi-tag (BirA) in the HTRF assays); test: HTRF antigen binding assay; hybridoma supernatant, 1 nM biotinylated antigen
T3 construct: Soluble region with C-terminal Avi and His tags; also called Human FRß
Method: as §1
(§4) Supernatants containing mouse IgG from hybridoma cells were incubated at a final assay dilution of 25% with 0.5 nM streptavidin-cryptate (CisBio, 610SAKLB), anti-mouse IgG AF647 (Jackson ImmunoResearch, 115-605-164) and 1 nM biotinylated human FRα, cyno FRα, mouse FRα, human FRβ or human FRγ to give a final assay volume of 10 μl, for 4 hours at room temperature before fluorescence was measured.

[10] = molecular target: T4, Mouse FRα ECD-Avi-His (mouse, biotin on the Avi-tag (BirA) in the HTRF assays); test: as above
T4 construct: Soluble region with C-terminal Avi and His tags
Method: as §1, §4

[11] = molecular target: T5, Human FRγ ECD-Avi-His (human, biotin on the Avi-tag (BirA) in the HTRF assays); test: as above
T5 construct: Soluble region with C-terminal Avi and His tags
Method: as §1, §4

[12] = molecular target: T1, Human FRα ECD-Avi-His; test: HTRF epitope competition assay, geomean n>2; competitor DyLight 650 labelled Comparator Antibody 3
Method: as §1, §2

T1 sequence (chain, as listed by the source limits assumed): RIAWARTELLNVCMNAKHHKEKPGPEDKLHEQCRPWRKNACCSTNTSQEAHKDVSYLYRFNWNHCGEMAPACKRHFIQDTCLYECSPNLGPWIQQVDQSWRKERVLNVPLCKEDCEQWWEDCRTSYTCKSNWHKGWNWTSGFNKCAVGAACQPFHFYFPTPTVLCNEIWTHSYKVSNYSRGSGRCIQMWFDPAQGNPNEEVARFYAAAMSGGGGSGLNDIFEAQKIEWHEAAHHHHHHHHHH
T2 sequence (chain, as listed by the source limits assumed): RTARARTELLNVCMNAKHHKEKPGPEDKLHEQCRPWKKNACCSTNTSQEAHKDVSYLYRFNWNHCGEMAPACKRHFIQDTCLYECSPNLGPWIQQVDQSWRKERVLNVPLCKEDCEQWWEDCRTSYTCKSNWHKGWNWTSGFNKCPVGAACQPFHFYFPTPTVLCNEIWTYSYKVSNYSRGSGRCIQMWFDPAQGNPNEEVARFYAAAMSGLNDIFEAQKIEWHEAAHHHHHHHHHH
T5 sequence (chain, as listed by the source limits assumed): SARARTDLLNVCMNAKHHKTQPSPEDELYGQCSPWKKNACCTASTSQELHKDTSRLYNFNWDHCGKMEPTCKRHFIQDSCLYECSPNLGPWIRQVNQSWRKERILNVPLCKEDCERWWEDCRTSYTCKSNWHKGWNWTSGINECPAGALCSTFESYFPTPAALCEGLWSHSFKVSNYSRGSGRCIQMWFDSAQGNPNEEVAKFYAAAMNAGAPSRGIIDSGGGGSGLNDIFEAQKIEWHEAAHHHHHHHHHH
T4 sequence (chain, as listed by the source limits assumed): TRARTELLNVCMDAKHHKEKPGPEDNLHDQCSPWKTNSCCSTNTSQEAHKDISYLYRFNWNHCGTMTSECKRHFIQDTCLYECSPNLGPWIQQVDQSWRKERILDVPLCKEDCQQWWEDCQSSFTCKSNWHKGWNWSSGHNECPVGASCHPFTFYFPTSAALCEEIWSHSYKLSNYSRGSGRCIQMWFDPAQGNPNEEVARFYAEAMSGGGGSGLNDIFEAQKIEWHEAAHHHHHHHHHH
T3 sequence (chain, as listed by the source limits assumed): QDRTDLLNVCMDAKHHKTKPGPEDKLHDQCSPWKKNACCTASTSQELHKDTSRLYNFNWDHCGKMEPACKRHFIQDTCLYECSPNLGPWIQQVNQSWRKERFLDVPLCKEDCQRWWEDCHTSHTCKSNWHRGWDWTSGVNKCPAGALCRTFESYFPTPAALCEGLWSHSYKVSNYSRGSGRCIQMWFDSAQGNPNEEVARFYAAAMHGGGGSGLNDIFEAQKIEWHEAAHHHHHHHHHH

Row | Binder | IC50 [1] | IC50 [2] | Kd [3] | koff [3] | kon [3] | Kd [4] | koff [4] | kon [4] | fold difference (IC50 45°C against 4°C) [5] | IC50 [6] | IC50 [7] | fold difference of affinity, cyno FRα against human FRα [8] | binding result [9] | binding result [10] | binding result [11] | IC50 [12]
1 | B1 | 0.032 nM | 0.177 nM | 1.3 nM | 0.000354 s⁻¹ | 279000 M⁻¹ s⁻¹ | 1.8 nM | 0.000342 s⁻¹ | 195000 M⁻¹ s⁻¹ | 1 fold | 0.711 nM | 0.708 nM | ≤ 2.5 fold |  |  |  | 
2 | B2 | 0.0296 nM | 0.0806 nM | 0.93 nM | 0.000135 s⁻¹ | 145000 M⁻¹ s⁻¹ | 1.56 nM | 0.00016 s⁻¹ | 101000 M⁻¹ s⁻¹ | 1.3 fold | 0.0511 nM | 0.0665 nM | ≤ 2.5 fold |  |  |  | 
3 | B3 |  |  |  |  |  |  |  |  |  |  |  |  | no binding | no binding | no binding | 
4 | B4 | 0.363 nM | 4.15 nM | 13.5 nM | 0.00129 s⁻¹ | 95700 M⁻¹ s⁻¹ | 19.1 nM | 0.00183 s⁻¹ | 95800 M⁻¹ s⁻¹ | 0.85 fold | 5.07 nM | 4.31 nM | ≤ 2.5 fold |  |  |  | 
5 | B5 |  |  |  |  |  |  |  |  |  |  |  |  | no binding | no binding | no binding | 
6 | B6 |  |  |  |  |  |  |  |  |  |  |  |  | no binding | no binding | no binding | 
7 | B7 |  | 1.46 nM | 0.93 nM | 0.000527 s⁻¹ | 568000 M⁻¹ s⁻¹ | 1.1 nM | 0.000508 s⁻¹ | 475000 M⁻¹ s⁻¹ | 1.23 fold | 0.945 nM | 1.16 nM | ≤ 2.5 fold |  |  |  | 0.285 nM
8 | B8 |  |  |  |  |  |  |  |  |  |  |  |  | no binding | no binding | no binding | 
9 | B9 |  |  |  |  |  | 36.9 nM |  |  |  |  |  |  |  |  |  | 
10 | B10 |  |  |  |  |  |  |  |  |  |  |  |  | no binding | no binding | no binding | 
11 | B11 |  | 9.33 nM | 2.6 nM | 0.000762 s⁻¹ | 293000 M⁻¹ s⁻¹ | 5.1 nM | 0.00187 s⁻¹ | 364000 M⁻¹ s⁻¹ | 1.46 fold | 3.75 nM | 5.48 nM | ≤ 2.5 fold |  |  |  | 1.83 nM
12 | B12 |  |  |  |  |  |  |  |  |  |  |  |  | no binding | no binding | no binding | 
